Assay results published in US12194082B2, “Compositions and methods for treatment of homocystinuria” (THE REGENTS OF THE UNIVERSITY OF COLORADO, priority 2016, dated 2025).
Several values for one entry are separate records, joined by “and”; a condition that tells them apart may be missing. Identical values can stand only once.

Columns and labels:
[1] = test system: Hcy, Cth, Cys; assay: Plasma metabolites in I278T mice of the eye study; format: in vivo; conditions: 7.5 mg/kg SC 3x/week
Method: The changes in metabolite levels in plasma were measured in I278T (+/−) healthy heterozygous control mice, untreated −/− affected homozygous control mice, and 20NHS PEG-htCBS C15S-treated −/− homozygous I278T mice. The 20NHS PEG-htCBS C15S (C15S/ME-200GS)-treated mice were administered 7.5 mg/kg subcutaneously (SC) 3 times per week from the age of 2 days up to the age of 4 months. Levels measured beginning at 72 hours after the injection as mice were on the treatment from 2 days of age.

[2] = Pharmacokinetics of 20NHS PEG-htCBS C15S in rats; conditions: for AUC/dose corrected to 80% bioavailability / Cmax/dose corrected to 80% bioavailability / tmax: SC
Method: CBS activity was determined by a radioisotope assay with C^14-labeled serine as a substrate. Ten μl (total 490 ng) of pure htCBS in dilution buffer (0.1 M Tris-HCl pH=8.6, 1 mM DTT, 10 μM PLP, 0.5 mg/ml BSA) or 10 μl of plasma were added to 85 μl of reaction mixture containing 0.1 M Tris-HCl pH=8.6, 10 mM L-serine, 0.5 mM PLP, 0.5 mg/ml BSA and 0.3 μCi (for pure enzyme) or 0.45 μCi (for plasma) of L-[C^14(U)]-Serine. Samples were incubated for 5 min at 37° C. and reaction was initiated by addition of 5 μl of 0.2 M Hcy (10 mM final concentration). Following 30 min of incubation at 37° C., a 20 μl aliquot of the assay mixture was applied onto a grade 3 CHR Whatman (NJ, USA) paper. Assay initiation and sampling of the resulting mixture were staggered so that each reaction time was 30 minutes. Descending paper chromatography was used to isolate the radioactive product (Cth) from a labeled substrate (Ser). The C^14-cystathionine formed in the reaction was separated from C^14-serine by an overnight descending paper chromatography in 2-propanol/formic acid/H2O (75:5.7:18.9 v/v). Radioactivity in the area of the marker cystathionine (detected by staining the marker lane with ninhydrin) was determined by cutting the chromatogram into strips that were submerged in 5 ml of Opti-fluor scintillation cocktail (PerkinElmer, MA, USA) and counted in a Beckman LS-3801 scintillation counter. An enzyme-free sample was used as a blank to monitor the background radioactivity that was then subtracted from each sample. For pure enzyme, specific activity values are expressed as enzyme units (the amount of enzyme that produces 1 μmol of cystathionine/hour) per mg of CBS, and for plasma samples as units per μl plasma.
The pharmacokinetic (PK) parameters were calculated using a non-compartmental curve stripping model which resolves a curve into a series of exponential terms corresponding to the absorption, distribution and elimination phases occurring during the time course of the enzyme in the blood. The curve stripping approach assumes that the disposition phases of the drug follow apparent first-order kinetics, which is evidenced by the linearity in the terminal portion of a semi-log plot. These calculations were made using a modeling program called PK Solutions 2.0 (Summit Solutions, Montrose, CO) using the mean plasma enzyme activity for each route of administration. The bioavailability was calculated by dividing the area under the curve (AUC) for the SC or IP route by the AUC observed after IV administration.
In order to assess the pharmacokinetics of 20NHS PEG-htCBS C15S in rats, wild-type Sprague Dawley rats were injected with a single dose of 20NHS PEG-htCBS C15S through intra-vascular (IV) or sub-cutaneous (SC) routes. The design of a third (repeated dose) PK study (groups 7-9) was adjusted to allow extraction of data after the first dose and thus their combination with a single dose PK study (groups 1-6).
To further evaluate rats as a species for conducting long-term toxicity studies, the pharmacokinetics of 20NHS PEG-htCBS C15S was determined in three groups of Sprague Dawley rats receiving a total of 9 SC injections every 48 hours of either 4 mg/kg (low), 8 mg/kg (mid), or 24 mg/kg (high) 20NHS PEG-htCBS C15S. […] The experiment was conducted for a length of 24 days.

[3] = LC/MS/MS C15S activity assay of monkey plasma samples; format: in vivo, cynomolgus monkey
Description: The bioanalytical method developed using LC/MS/MS for the determination of cystathionine M+4 as product of the CBS activity using cystathionine M+8 (^13C2D6) as an internal standard has been developed and validated for both monkey and human plasma samples and thus can be used to determine CBS activity in samples from pharmacokinetic and toxicology studies as well as clinical trials. The enzymatic assay was essentially performed as described in Example 1 with the following modifications. Deuterated D,L-homocysteine M+4 was used to initiate the reaction with unlabeled L-serine in the reaction mixture. After 30 min incubation at 37° C., the enzymatic reaction was stopped by acidification using 6N HCl and labeled product of the reaction (cystathionine M+4) was extracted using EZ:faast kit (Phenomenex, USA). Briefly, 50 μl of sample (calibration standard, QC sample or enzymatic reaction) was mixed in tube on ice and protected from light with 100 μl of internal standard solution (cystathionine M+8, 0.25 ng/μl) and 250 μl water. The mix was extracted with MCX cartridge columns (Waters). Eluted medium (6N ammonia in methanol) was evaporated to dryness at 45° C. The dry residue was dissolved in eluent medium of the EZ:faast kit, derivatized and liquid-liquid extracted following the kit manufacturer's protocol. The solid phase extraction was automatized with extraction plates to increase throughput and save time. Measurable concentrations of cystathionine M+4 were observed regardless of origin of the enzyme (htCBS C15S or C15S/ME-200GS present in plasma samples or controls or traces of endogenous monkey/human CBS in plasma samples). Much attention was paid to the calibration range since the incurred determinations were in the higher part of the concentration range qualified (5.00 to 1500 nM).
Tables 12-14 below show the comparison of C15S/ME-200GS specific activity determined by LC/MS/MS using D,L-homocysteine M+4 as a substrate and by radiometric assay using L-[…] as a substrate. The enzyme's specific activity is presented in mU/μl. The “n.d.” stands for “not determined”.

20NHS PEG-htCBS C15S: htCBS C15S PEGylated with ME-200GS PEG (20 kDa linear NHS ester-activated PEG)
plasma Cth ([1]; throughout the study): around 50 μM
plasma Cys ([1]; throughout the study): around 230 μM
plasma Hcy ([1]; decreased from 230 μM): about 70 μM
plasma CBS activity on repeated dosing ([2]; 9 SC injections every 48 hours, 4, 8 or 24 mg/kg): substantial decline in peak CBS activities
AUC/dose corrected to 80% bioavailability ([2]; Rat/Female): 1233 (mU-h/mL)/(mg/kg)
Cmax/dose corrected to 80% bioavailability ([2]; Rat/Female): 16 (mU/μL)/(mg/kg)
tmax ([2]; Rat/Female): 29 h
AUC/dose corrected to 80% bioavailability ([2]; Rat/Male): 1452 (mU-h/mL)/(mg/kg)
Cmax/dose corrected to 80% bioavailability ([2]; Rat/Male): 17 (mU/μL)/(mg/kg)
tmax ([2]; Rat/Male): 35 h
AUC0−t (obs area) ([2]; females, 4 mg/kg IV): 6165 mU-h/μl
Bioavailability ([2]; females, 4 mg/kg IV): 100%
MRT (area) ([2]; females, 4 mg/kg IV): 45.5 h
cp0 ([2]; females, 4 mg/kg IV): 186.2 mU/μl
AUC0−t (obs area) ([2]; females, 8 mg/kg SC): 4505 mU-h/μl
Bioavailability ([2]; females, 8 mg/kg SC): 36.5%
MRT (area) ([2]; females, 8 mg/kg SC): 76.8 h
cmax ([2]; females, 8 mg/kg SC): 58.2 mU/μl
tmax (obs) ([2]; females, 8 mg/kg SC): 24 h
AUC0−t (obs area) ([2]; females, 24 mg/kg SC): 13135 mU-h/μl
Bioavailability ([2]; females, 24 mg/kg SC): 35.5%
MRT (area) ([2]; females, 24 mg/kg SC): 79.8 h
cmax ([2]; females, 24 mg/kg SC): 166.3 mU/μl
tmax (obs) ([2]; females, 24 mg/kg SC): 48 h
bioavailability (F %) after SC administration ([2]; male rats, across doses): 19-21% and 20%
AUC0−t (obs area) ([2]; males, 4 mg/kg IV): 7231 mU-h/μl
Bioavailability ([2]; males, 4 mg/kg IV): 100%
MRT (area) ([2]; males, 4 mg/kg IV): 52.9 h
cp0 ([2]; males, 4 mg/kg IV): 182.1 mU/μl
AUC0−t (obs area) ([2]; males, 8 mg/kg SC): 2703 mU-h/μl
Bioavailability ([2]; males, 8 mg/kg SC): 18.7%
MRT (area) ([2]; males, 8 mg/kg SC): 65.6 h
cmax ([2]; males, 8 mg/kg SC): 32.7 mU/μl
tmax (obs) ([2]; males, 8 mg/kg SC): 48 h
AUC0−t (obs area) ([2]; males, 24 mg/kg SC): 9269 mU-h/μl
Bioavailability ([2]; males, 24 mg/kg SC): 21.3%
MRT (area) ([2]; males, 24 mg/kg SC): 66.1 h
cmax ([2]; males, 24 mg/kg SC): 110.0 mU/μl
tmax (obs) ([2]; males, 24 mg/kg SC): 38 h
specific activity in plasma, LC/MS/MS assay ([3]; single IV 2 mg/kg, 0.083 h): 88.865 mU/μl
specific activity in plasma, LC/MS/MS assay ([3]; single IV 2 mg/kg, 0.167 h): 81.065 mU/μl
specific activity in plasma, LC/MS/MS assay ([3]; single IV 2 mg/kg, 0.25 h): 80.315 mU/μl
specific activity in plasma, LC/MS/MS assay ([3]; single IV 2 mg/kg, 0.5 h): 81.815 mU/μl
specific activity in plasma, LC/MS/MS assay ([3]; single IV 2 mg/kg, 1 h): 75.415 mU/μl
specific activity in plasma, LC/MS/MS assay ([3]; single IV 2 mg/kg, 2 h): 71.765 mU/μl
specific activity in plasma, LC/MS/MS assay ([3]; single IV 2 mg/kg, 4 h): 67.415 mU/μl
specific activity in plasma, LC/MS/MS assay ([3]; single IV 2 mg/kg, 8 h): 61.715 mU/μl
specific activity in plasma, LC/MS/MS assay ([3]; single IV 2 mg/kg, 24 h): 47.815 mU/μl
specific activity in plasma, LC/MS/MS assay ([3]; single IV 2 mg/kg, 72 h): 28.915 mU/μl
specific activity in plasma, LC/MS/MS assay ([3]; single IV 2 mg/kg, 120 h): 17.180 mU/μl
specific activity in plasma, LC/MS/MS assay ([3]; single IV 2 mg/kg, 192 h): 8.490 mU/μl
specific activity in plasma, LC/MS/MS assay ([3]; single SC 2 mg/kg, 2 h): 6.479 mU/μl
specific activity in plasma, LC/MS/MS assay ([3]; single SC 2 mg/kg, 4 h): 11.108 mU/μl
specific activity in plasma, LC/MS/MS assay ([3]; single SC 2 mg/kg, 8 h): 19.913 mU/μl
specific activity in plasma, LC/MS/MS assay ([3]; single SC 2 mg/kg, 48 h): 32.538 mU/μl
specific activity in plasma, LC/MS/MS assay ([3]; single SC 2 mg/kg, 72 h): 27.888 mU/μl
specific activity in plasma, LC/MS/MS assay ([3]; single SC 2 mg/kg, 96 h): 20.768 mU/μl
specific activity in plasma, LC/MS/MS assay ([3]; single SC 2 mg/kg, 120 h): 16.958 mU/μl
specific activity in plasma, LC/MS/MS assay ([3]; single SC 2 mg/kg, 192 h): 9.063 mU/μl
specific activity in plasma, LC/MS/MS assay ([3]; single SC 2 mg/kg, 240 h): 5.908 mU/μl
specific activity in plasma, LC/MS/MS assay ([3]; single SC 2 mg/kg, 336 h): 2.273 mU/μl
specific activity in plasma, LC/MS/MS assay ([3]; single SC 6 mg/kg, 1 h): 3.065 mU/μl
specific activity in plasma, LC/MS/MS assay ([3]; single SC 6 mg/kg, 2 h): 7.640 mU/μl
specific activity in plasma, LC/MS/MS assay ([3]; single SC 6 mg/kg, 4 h): 18.365 mU/μl
specific activity in plasma, LC/MS/MS assay ([3]; single SC 6 mg/kg, 8 h): 41.090 mU/μl
specific activity in plasma, LC/MS/MS assay ([3]; single SC 6 mg/kg, 24 h): 85.190 mU/μl
specific activity in plasma, LC/MS/MS assay ([3]; single SC 6 mg/kg, 48 h): 86.090 mU/μl
specific activity in plasma, LC/MS/MS assay ([3]; single SC 6 mg/kg, 72 h): 74.840 mU/μl
specific activity in plasma, LC/MS/MS assay ([3]; single SC 6 mg/kg, 96 h): 59.940 mU/μl
specific activity in plasma, LC/MS/MS assay ([3]; single SC 6 mg/kg, 120 h): 56.340 mU/μl
specific activity in plasma, LC/MS/MS assay ([3]; single SC 6 mg/kg, 192 h): 24.190 mU/μl
specific activity in plasma, LC/MS/MS assay ([3]; single SC 6 mg/kg, 240 h): 14.440 mU/μl
specific activity in plasma, LC/MS/MS assay ([3]; single SC 6 mg/kg, 336 h): 4.784 mU/μl
